Source: patent US20230331823A1 (HENRY M JACKSON FOUNDATION FOR THE ADVANCEMENT OF MILITARY …, published 2023)
Where a chain is given by its changes, count along the chain named. Read-outs that look alike come from different tables or passages of the source.

B1: MoB3-3D8_Fc chimera antibody (Fc fusion)
chain: ARVDQTPQTITKETGESLTINCVLRDSNCALASTDWYRKKSGSTNEESISKGGRYVETVNSGSKSFSLRINDLTVEDSGTYRCNAWDSWETRQLKCDYDVYGGGTVVTVN
B2: ShAb01H06K (ShAb01Hole-06Knob) (bispecific antibody, V domains shown)
V domain 1: ARVDQTPRSVTKETGESLTINCVLRDSNCALSSTHWYRKKSGSTNEERILQGRRYVETVNSGSKSFSLRINDLRVEDSGTYRCKVYWGNSWQDKFCPGLGSYEYGDGTAVTVNS
V domain 2: ARVDQTPRSVTKETGESLTINCVLRDASYALGSTCWYRKKSGSTNEESISKGGRYVETVNSGSKSFSLRINDLTVEDGGTYRCGVGRGLGVGCDYPLCSYSYAACGDGTAVTVNS
B3: ShAb01-Foldon (ShAb01 VNAR-KESlinker-Foldon-3c-His8-Strep) (VNAR)
VNAR: B2 V domain 1 with S114K
B4: ShAb06H02K (ShAb06Hole-02Knob) (bispecific antibody, V domains shown)
V domain 1: B2 V domain 2
V domain 2: ARVDQTPQTITKETGESLTINCVLRDSNCALASTDWYRKKSGSTNEESISKGGRYVETVNSGSKSFSLRINDLTVEDSGTYRCNAWDSWETRQLKCDYDVYGGGTVVTVNS
B5: ShAb02-Foldon (ShAb02 VNAR-KESlinker-Foldon-3c-His8-Strep) (VNAR)
VNAR: B4 V domain 2 with S111K

How the values were obtained:
[1] = molecular target: Spike Ferritin nanoparticle SpFN_pCoV1B-06-PL (PrefLead-S2P.1158op1-del-Ferritin) (SARS-CoV-2 Spike ectodomain fused to …); test: BLI, Fc fusion on AHC probe, SpFN_pCoV1B-06-PL in solution
[2] = molecular target: T1, SARS-CoV-2 Beta (B.1.351) Spike on pseudovirions (SARS-CoV-2); test: cell-based or functional assay
[3] = molecular target: T2, SARS-CoV-2 Alpha (B.1.1.7) Spike on pseudovirions (SARS-CoV-2); test: cell-based or functional assay
[4] = molecular target: T1, SARS-CoV-2 Beta (B.1.351) Spike on …; test: cell-based or functional assay; remark: listed apart in the source
[5] = molecular target: T2, SARS-CoV-2 Alpha (B.1.1.7) Spike on …; test: cell-based or functional assay; remark: listed apart in the source

Row | Binder | binding result [1] | pseudovirus neutralization IC50 [2] [µg/mL] | pseudovirus neutralization IC80 [2] [µg/mL] | pseudovirus neutralization IC50 [3] [µg/mL] | pseudovirus neutralization IC80 [3] [µg/mL] | pseudovirus neutralization IC50 [4] [µg/mL] | pseudovirus neutralization IC50 [5] [µg/mL]
1 | B1 | binds |  |  |  |  |  | 
2 | B2 |  | 1.28 | 6.17 | 1.37 | 2.65 |  | 
3 | B3 |  | 0.075 | 0.164 | 0.119 | 0.328 | 0.07 | 0.12
4 | B4 |  | 0.18 | 0.424 | 0.109 | 0.225 |  | 
5 | B5 |  | 0.397 | 1.8 | 0.035 | 0.104 | 0.02 | 0.04
